Test results from PMC11574045, “A cofactor-induced repressive type of transcription factor condensation can be induced by synthetic peptides to suppress tumorigenesis” (The EMBO Journal, 2024).

B1: OLIG1 (protein, UniProt Q8TAK6 1-271, looked up)
Oligodendrocyte transcription …: MYYAVSQARVNAVPGTMLRPQRPGDLQLGASLYELVGYRQPPSSSSSSTSSTSSTSSSSTTAPLLPKAAREKPEAPAEPPGPGPGSGAHPGGSARPDAKEEQQQQLRRKINSRERKRMQDLNLAMDALREVILPYSAAHCQGAPGRKLSKIATLLLARNYILLLGSSLQELRRALGEGAGPAAPRLLLAGLPLLAAAPGSVLLAPGAVGPPDALRPAKYLSLALDEPPCGQFALPGGGAGGPGLCTCAVCKFPHLVPASLGLAAVQAQFSK
B2: OVOL3 (protein, UniProt O00110 1-190, looked up)
Putative transcription factor …: MPRAFLVRSRRPQPPNWGHLPDQLRGDAYIPDCSSLGGPPAQQSSSVRDPWTAQPTQGNLTSAPRGPGTLGCPLCPKAFPLQRMLTRHLKCHSPVRRHLCRCCGKGFHDAFDLKRHMRTHTGIRPFRCSACGKAFTQRCSLEAHLAKVHGQPASYAYRERREKLHVCEDCGFTSSRPDTYAQHRALHRAA
B3: NSD2 (protein, UniProt O96028 1-1365, looked up)
Histone-lysine …: MEFSIKQSPLSVQSVVKCIKMKQAPEILGSANGKTPSCEVNRECSVFLSKAQLSSSLQEGVMQKFNGHDALPFIPADKLKDLTSRVFNGEPGAHDAKLRFESQEMKGIGTPPNTTPIKNGSPEIKLKITKTYMNGKPLFESSICGDSAADVSQSEENGQKPENKARRNRKRSIKYDSLLEQGLVEAALVSKISSPSDKKIPAKKESCPNTGRDKDHLLKYNVGDLVWSKVSGYPWWPCMVSADPLLHSYTKLKGQKKSARQYHVQFFGDAPERAWIFEKSLVAFEGEGQFEKLCQESAKQAPTKAEKIKLLKPISGKLRAQWEMGIVQAEEAASMSVEERKAKFTFLYVGDQLHLNPQVAKEAGIAAESLGEMAESSGVSEEAAENPKSVREECIPMKRRRRAKLCSSAETLESHPDIGKSTPQKTAEADPRRGVGSPPGRKKTTVSMPRSRKGDAASQFLVFCQKHRDEVVAEHPDASGEEIEELLRSQWSLLSEKQRARYNTKFALVAPVQAEEDSGNVNGKKRNHTKRIQDPTEDAEAEDTPRKRLRTDKHSLRKRDTITDKTARTSSYKAMEAASSLKSQAATKNLSDACKPLKKRNRASTAASSALGFSKSSSPSASLTENEVSDSPGDEPSESPYESADETQTEVSVSSKKSERGVTAKKEYVCQLCEKPGSLLLCEGPCCGAFHLACLGLSRRPEGRFTCSECASGIHSCFVCKESKTDVKRCVVTQCGKFYHEACVKKYPLTVFESRGFRCPLHSCVSCHASNPSNPRPSKGKMMRCVRCPVAYHSGDACLAAGCSVIASNSIICTAHFTARKGKRHHAHVNVSWCFVCSKGGSLLCCESCPAAFHPDCLNIEMPDGSWFCNDCRAGKKLHFQDIIWVKLGNYRWWPAEVCHPKNVPPNIQKMKHEIGEFPVFFFGSKDYYWTHQARVFPYMEGDRGSRYQGVRGIGRVFKNALQEAEARFREIKLQREARETQESERKPPPYKHIKVNKPYGKVQIYTADISEIPKCNCKPTDENPCGFDSECLNRMLMFECHPQVCPAGEFCQNQCFTKRQYPETKIIKTDGKGWGLVAKRDIRKGEFVNEYVGELIDEEECMARIKHAHENDITHFYMLTIDKDRIIDAGPKGNYSRFMNHSCQPNCETLKWTVNGDTRVGLFAVCDIPAGTELTFNYNLDCLGNEKTVCRCGASNCSGFLGDRPKTSTTLSSEEKGKKTKKKTRRRRAKGEGKRQSEDECFRCGDGGQLVLCDRKFCTKAYHLSCLGLGKRPFGKWECPWHHCDVCGKPSTSFCHLCPNSFCKEHQDGTAFSCTPDGRSYCCEHDLGAASVRSTKTEKPPPEPGKPKGKRRRRRGWRRVTEGK
B4: NUP62 (protein, UniProt P37198 2-522, looked up)
Nuclear pore glycoprotein p62: SGFNFGGTGAPTGGFTFGTAKTATTTPATGFSFSTSGTGGFNFGAPFQPATSTPSTGLFSLATQTPATQTTGFTFGTATLASGGTGFSLGIGASKLNLSNTAATPAMANPSGFGLGSSNLTNAISSTVTSSQGTAPTGFVFGPSTTSVAPATTSGGFSFTGGSTAQPSGFNIGSAGNSAQPTAPATLPFTPATPAATTAGATQPAAPTPTATITSTGPSLFASIATAPTSSATTGLSLCTPVTTAGAPTAGTQGFSLKAPGAASGTSTTTSTAATATATTTSSSSTTGFALNLKPLAPAGIPSNTAAAVTAPPGPGAAAGAAASSAMTYAQLESLINKWSLELEDQERHFLQQATQVNAWDRTLIENGEKITSLHREVEKVKLDQKRLDQELDFILSQQKELEDLLSPLEELVKEQSGTIYLQHADEEREKTYKLAENIDAQLKRMAQDLKDIIEHLNTSGAPADTSDPLQQICKILNAHMDSLQWIDQNSALLQRKVEEVTKVCEGRRKEQERSFRITFD
B5: PA2G4 (protein, UniProt Q9UQ80 2-394, looked up)
Proliferation-associated …: SGEDEQQEQTIAEDLVVTKYKMGGDIANRVLRSLVEASSSGVSVLSLCEKGDAMIMEETGKIFKKEKEMKKGIAFPTSISVNNCVCHFSPLKSDQDYILKEGDLVKIDLGVHVDGFIANVAHTFVVDVAQGTQVTGRKADVIKAAHLCAEAALRLVKPGNQNTQVTEAWNKVAHSFNCTPIEGMLSHQLKQHVIDGEKTIIQNPTDQQKKDHEKAEFEVHEVYAVDVLVSSGEGKAKDAGQRTTIYKRDPSKQYGLKMKTSRAFFSEVERRFDAMPFTLRAFEDEKKARMGVVECAKHELLQPFNVLYEKEGEFVAQFKFTVLLMPNGPMRITSGPFEPDLYKSEMEVQDAELKALLQSSASRKTQKKKKKKASKTAENATSGETLEENEAGD
B6: NRIP1 (protein, UniProt P48552 1-1158, looked up)
Nuclear receptor-interacting …: MTHGEELGSDVHQDSIVLTYLEGLLMHQAAGGSGTAVDKKSAGHNEEDQNFNISGSAFPTCQSNGPVLNTHTYQGSGMLHLKKARLLQSSEDWNAAKRKRLSDSIMNLNVKKEALLAGMVDSVPKGKQDSTLLASLLQSFSSRLQTVALSQQIRQSLKEQGYALSHDSLKVEKDLRCYGVASSHLKTLLKKSKVKDQKPDTNLPDVTKNLIRDRFAESPHHVGQSGTKVMSEPLSCAARLQAVASMVEKRASPATSPKPSVACSQLALLLSSEAHLQQYSREHALKTQNANQAASERLAAMARLQENGQKDVGSYQLPKGMSSHLNGQARTSSSKLMASKSSATVFQNPMGIIPSSPKNAGYKNSLERNNIKQAANNSLLLHLLKSQTIPKPMNGHSHSERGSIFEESSTPTTIDEYSDNNPSFTDDSSGDESSYSNCVPIDLSCKHRTEKSESDQPVSLDNFTQSLLNTWDPKVPDVDIKEDQDTSKNSKLNSHQKVTLLQLLLGHKNEENVEKNTSPQGVHNDVSKFNTQNYARTSVIESPSTNRTTPVSTPPLLTSSKAGSPINLSQHSLVIKWNSPPYVCSTQSEKLTNTASNHSMDLTKSKDPPGEKPAQNEGAQNSATFSASKLLQNLAQCGMQSSMSVEEQRPSKQLLTGNTDKPIGMIDRLNSPLLSNKTNAVEENKAFSSQPTGPEPGLSGSEIENLLERRTVLQLLLGNPNKGKSEKKEKTPLRDESTQEHSERALSEQILMVKIKSEPCDDLQIPNTNVHLSHDAKSAPFLGMAPAVQRSAPALPVSEDFKSEPVSPQDFSFSKNGLLSRLLRQNQDSYLADDSDRSHRNNEMALLESKNLCMVPKKRKLYTEPLENPFKKMKNNIVDAANNHSAPEVLYGSLLNQEELKFSRNDLEFKYPAGHGSASESEHRSWARESKSFNVLKQLLLSENCVRDLSPHRSNSVADSKKKGHKNNVTNSKPEFSISSLNGLMYSSTQPSSCMDNRTFSYPGVVKTPVSPTFPEHLGCAGSRPESGLLNGCSMPSEKGPIKWVITDAEKNEYEKDSPRLTKTNPILYYMLQKGGNSVTSRETQDKDIWREASSAESVSQVTAKEELLPTAETKASFFNLRSPYNSHMGNNASRPHSANGEVYGLLGSVLTIKKESE
B7: OVOL1 (protein, UniProt O14753 1-267, looked up)
Putative transcription factor …: MPRAFLVKKPCVSTCKRNWSELPDEERGEIYVPVSLGFCPPQPYREPEPSVAEPPSCPLALNMSLRDSSYSMAPGPCVVAQLPSEDMGHLTDPQSRDHGFLRTKMKVTLGDSPSGDLFTCRVCQKAFTYQRMLNRHMKCHNDVKRHLCTYCGKGFNDTFDLKRHVRTHTGVRPYKCSLCDKAFTQRCSLESHLKKIHGVQQKYAYKERRAKLYVCEECGCTSESQEGHVLHLKEHHPDSPLLRKTSKKVAVALQNTVTSLLQGSPHL
B8: ATF7 (protein, UniProt P17544 1-483, looked up)
Cyclic AMP-dependent …: MGDDRPFVCNAPGCGQRFTNEDHLAVHKHKHEMTLKFGPARTDSVIIADQTPTPTRFLKNCEEVGLFNELASSFEHEFKKAADEDEKKAAAGPLDMSLPSTPDIKIKEEEPVEVDSSPPDSPASSPCSPPLKEKEVTPKPVLISTPTPTIVRPGSLPLHLGYDPLHPTLPSPTSVITQAPPSNRQMGSPTGSLPLVMHLANGQTMPVLPGPPVQMPSVISLARPVSMVPNIPGIPGPPVNSSGSISPSGHPIPSEAKMRLKATLTHQVSSINGGCGMVVGTASTMVTARPEQSQILIQHPDAPSPAQPQVSPAQPTPSTGGRRRRTVDEDPDERRQRFLERNRAAASRCRQKRKLWVSSLEKKAEELTSQNIQLSNEVTLLRNEVAQLKQLLLAHKDCPVTALQKKTQGYLESPKESSEPTGSPAPVIQHSSATAPSNGLSVRSAAEAVATSVLTQMASQRTELSMPIQSHVIMTPQSQSAGR
B9: PATZ1 (protein, UniProt Q9HBE1 1-687, looked up)
POZ-, AT hook-, and zinc …: MERVNDASCGPSGCYTYQVSRHSTEMLHNLNQQRKNGGRFCDVLLRVGDESFPAHRAVLAACSEYFESVFSAQLGDGGAADGGPADVGGATAAPGGGAGGSRELEMHTISSKVFGDILDFAYTSRIVVRLESFPELMTAAKFLLMRSVIEICQEVIKQSNVQILVPPARADIMLFRPPGTSDLGFPLDMTNGAALAANSNGIAGSMQPEEEAARAAGAAIAGQASLPVLPGVDRLPMVAGPLSPQLLTSPFPSVASSAPPLTGKRGRGRPRKANLLDSMFGSPGGLREAGILPCGLCGKVFTDANRLRQHEAQHGVTSLQLGYIDLPPPRLGENGLPISEDPDGPRKRSRTRKQVACEICGKIFRDVYHLNRHKLSHSGEKPYSCPVCGLRFKRKDRMSYHVRSHDGSVGKPYICQSCGKGFSRPDHLNGHIKQVHTSERPHKCQTCNASFATRDRLRSHLACHEDKVPCQVCGKYLRAAYMADHLKKHSEGPSNFCSICNRGFSSASYLKVHVKTHHGVPLPQVSRHQEPILNGGAAFHCARTYGNKEGQKCSHQDPIESSDSYGDLSDASDLKTPEKQSANGSFSCDMAVPKNKMESDGEKKYPCPECGSFFRSKSYLNKHIQKVHVRALGGPLGDLGPALGSPFSPQQNMSLLESFGFQIVQSAFASSLVDPEVDQQPMGPEGK
B10: OLIG3 (protein, UniProt Q7RTU3 1-272, looked up)
Oligodendrocyte transcription …: MNSDSSSVSSRASSPDMDEMYLRDHHHRHHHHQESRLNSVSSTQGDMMQKMPGESLSRAGAKAAGESSKYKIKKQLSEQDLQQLRLKINGRERKRMHDLNLAMDGLREVMPYAHGPSVRKLSKIATLLLARNYILMLTSSLEEMKRLVGEIYGGHHSAFHCGTVGHSAGHPAHAANSVHPVHPILGGALSSGNASSPLSAASLPAIGTIRPPHSLLKAPSTPPALQLGSGFQHWAGLPCPCTICQMPPPPHLSALSTANMARLSAESKDLLK

System: HEK293FT cells transfected with TF library
Assay: Screening of TF condensates based on fluorescent puncta
Assay type: cell-based
Conditions: Figure 1B numerical data; TF library screen, one value per transcriptional factor
Procedure, shortened: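 HEK293FT cells were reverse-transfected with Flag- or GAL4-tagged TF plasmids (1.6 μg/ml, PEI). After 60 h, cells were cultured 12 h with or without glucose, then fixed and immunostained with anti-Flag or anti-GAL4 and Alexa 488 secondaries. Fluorescent puncta were imaged over fifty random fields per well by high-content imaging.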

| Molecule | Z score of condensed fraction |
| --- | --- |
| B1 | -1.059 |
| B2 | -0.7593 |
| B3 | -0.8212 |
| B4 | -0.01313 |
| B5 | 0.5274 |
| B6 | 2.676 |
| B7 | -0.194 |
| B8 | -0.2253 |
| B9 | -0.2188 |
| B10 | -0.3841 |
